In paper PMC9817130 (2023):

Columns and labels:
[1] = molecular target: T1, SARS-CoV-2 WT RBD protein (Sino Biological) (SARS-CoV-2, UniProt P0DTC2 319-541); test: SPR
[2] = molecular target: T1, SARS-CoV-2 WT RBD protein (Sino …); test: SPR; remark: listed apart in the source

Binder	koff [1] [s⁻¹]	Kd [2] [pM]
P3E6 monoclonal antibody (IgG) (antibody, V domains shown) VH: EVQLLDSGGGLVQPGGSLRLSCAVSGFTFSNYAMNWVRQTPGKELEWVSAISGTGDDTHYADSVRGRFTISSDNSKNTVYLQMNSLRVEDTAIYYCAKAISRYPWGCLDYWGQGTLVTVSS VL: not shown	0.00014	558
P2B4 monoclonal antibody (IgG) (antibody, V domains shown) VH: EVQLVESGGGLVQPGRSLRLSCAASGFNFDDYAMHWARQVPGKGLEWVSGISGNSGSVEYADSVKGRFAMSRDNAKNSLYLEMNSLRTEDTALYYCAKETTPWGIYRSGGLDVWGQGTTVTVSS VL: DIQMTQSPSSLSASVGDRVTITCRASQSIHSFLSWYQQKPGKAPKLLINSASTLQSGVPPWFSGSGSGTDFTLTISSLQPEDFATYYCQQSYIAPWTFGQGTKVEIK	1.37e-05	143
P2D9 monoclonal antibody (IgG) (antibody, V domains shown) VH: EVQLVESGAEVKKPGSSVKVSCKASGDTFYTFDISWVRQAPGQGLEWMGGISPVFDAPNYAQKFQDRVTITADKSTSTAYMELSSLRSEDTAIYYCVKPTYSNYVWGIGAFDVWGQGTTVTVSS VL: EIVLTQSPGTLSLSPGERATLSCRASQSVGNIYLAWYQQKPGQAPRLLIYGASTRATGIPDRFSGSGSGTDFTLTISRLEPEDFAVYYCQQYGDSLWTFGQGTKVEIK	4.34e-05	202
P1D9 monoclonal antibody (IgG) (antibody, V domains shown) VH: EVQLVQSGAEVKKPGSSVRVSCKASGGTFGDDSITWVRQAPGQGLEWMGGIFPLIGKTHYAQRFQGRLTVTADKSTSTAYMELSGLRSEDTAIYYCARDWGTTLTAFDIWGQGTMVTVSS VL: DIQMTQSPSSLSASVGDTVTITCRAGQTINTFLNWYQQKPGKAPKLLIYAASTLQSGVPSRFSGSGSGTDFTLTINSLQPEDFATYYCQQSYSNLYTFSQGTKVEIK	7.68e-05	188
